In article PMC5575113 (2017):
Numbering of substitutions follows the chain as printed.

B1: GroES^7I25D_(1,4,7) (other)
chain: MNIRPLHDRVIVKRKEVETKSAGGDVLTGSAAAKSTRGEVLAVGNGRILENGEVKPLDVKVGDIVIFNDGYGVKSEKIDNEEVLIMSESDILAIVEAMNIRPLHDRVIVKRKEVETKSAGGIVLTGSAAAKSTRGEVLAVGNGRILENGEVKPLDVKVGDIVIFNDGYGVKSEKIDNEEVLIMSESDILAIVEAMNIRPLHDRVIVKRKEVETKSAGGIVLTGSAAAKSTRGEVLAVGNGRILENGEVKPLDVKVGDIVIFNDGYGVKSEKIDNEEVLIMSESDILAIVEAMNIRPLHDRVIVKRKEVETKSAGGDVLTGSAAAKSTRGEVLAVGNGRILENGEVKPLDVKVGDIVIFNDGYGVKSEKIDNEEVLIMSESDILAIVEAMNIRPLHDRVIVKRKEVETKSAGGIVLTGSAAAKSTRGEVLAVGNGRILENGEVKPLDVKVGDIVIFNDGYGVKSEKIDNEEVLIMSESDILAIVEAMNIRPLHDRVIVKRKEVETKSAGGIVLTGSAAAKSTRGEVLAVGNGRILENGEVKPLDVKVGDIVIFNDGYGVKSEKIDNEEVLIMSESDILAIVEAMNIRPLHDRVIVKRKEVETKSAGGDVLTGSAAAKSTRGEVLAVGNGRILENGEVKPLDVKVGDIVIFNDGYGVKSEKIDNEEVLIMSESDILAIVEA
modifications: DyLight 650 NHS ester on amines (for MST)
B2: GroES^7I25A1,4 (other)
chain: B1 chain with D25A, D316A, D607I
modifications: DyLight 650 NHS ester on amines (for MST)
B3: GroES^7I25D1,2 (other)
chain: B1 chain with I122D, D316I, D607I
modifications: DyLight 650 NHS ester on amines (for MST)
B4: GroES^7I25A1 (other)
chain: B1 chain with D25A, D316I, D607I
modifications: DyLight 650 NHS ester on amines (for MST)
B5: GroES^7 (other)
chain: B1 chain with D25I, D316I, D607I
modifications: DyLight 650 NHS ester on amines (for MST)
B6: GroES^7I25A_(1,4,7) (other)
chain: B1 chain with D25A, D316A, D607A
modifications: DyLight 650 NHS ester on amines (for MST)
B7: GroES^7I25A1,2 (other)
chain: B1 chain with D25A, I122A, D316I, D607I
modifications: DyLight 650 NHS ester on amines (for MST)
B8: GroES^7I25D1,3 (other)
chain: B1 chain with I219D, D316I, D607I
modifications: DyLight 650 NHS ester on amines (for MST)
B9: GroES^7I25D1 (other)
chain: B1 chain with D316I, D607I
modifications: DyLight 650 NHS ester on amines (for MST)
B10: GroES^7I25D1,4 (other)
chain: B1 chain with D607I
modifications: DyLight 650 NHS ester on amines (for MST)
B11: GroES^7I25A1,3 (other)
chain: B1 chain with D25A, I219A, D316I, D607I
modifications: DyLight 650 NHS ester on amines (for MST)

Experiments:
[1] = biological target: GroEL (E. coli, UniProt P0A6F5 1-548); test: MST
[2] = biological target: GroEL^SR (GroEL R452A/E461A/S463A/V464A) (E. coli, UniProt P0A6F5 1-548, R452A | E461A | S463A | V464A); test: MST

Binder | Kd [1] | Kd [2]
B1 | 40 nM | –
B2 | 8.99 nM | 51.3 nM
B3 | 9.24 nM | 38.7 nM
B4 | 4.6 nM | –
B5 | 3.05 nM | 4.54 nM
B6 | 77.2 nM | –
B7 | 8.97 nM | 35 nM
B8 | 13.3 nM | 71.9 nM
B9 | 4.07 nM | 25.6 nM
B10 | 9.58 nM | 73.1 nM
B11 | 10 nM | 39.7 nM
